# Target: integrin αIIbβ3 (human) (UniProt P05106)
# Assay: epifluorescence microscopy of co-clustering on giant unilamellar vesicles
Substance,stoichiometry N (kindlin:integrin),stoichiometry N (scale: kindlin:integrin),stoichiometry N (talin:integrin),stoichiometry N (scale: talin:integrin)
mCherry-kindlin-2 (from UniProt Q96AC1 1-680) (natural protein),3,4,,
eGFP-talin F2-F3 (domain or fragment),,,2,3
